Measured values: PMC5832032, “Structural Basis for pH-Dependent Oligomerization of Dihydropyrimidinase from Pseudomonas aeruginosa PAO1” (Bioinorganic Chemistry and Applications, 2018)
Where “and” joins values, the source holds several entries; their conditions need not be identical. Equal entries are not always repeated.

Molecular target: the molecule itself
Assay: SEC; Superdex 200 prep grade, purified protein 5 mg/mL in Buffer C (20 mM MES, 100 mM NaCl, pH 5.9), 0.5 mL/min; masses estimated against standard proteins; dimers and tetramers coexist

B1: Pseudomonas aeruginosa PAO1 dihydropyrimidinase (enzyme)
chain: MSLLIRGATVVTHEESYRADVLCANGLIQAIGENLETPSGCDVLDGGGQYLMPGGIDPHTHMQLPFMGTVASEDFFSGTAAGLAGGTTSIIDFVIPNPRQSLLEAFHTWRGWAQKSAADYGFHVAITWWSDEVAREMGELVAQHGVNSFKHFMAYKNAIMAADDTLVASFERCLELGAVPTVHAENGELVFHLQQKLLAQGLTGPEAHPLSRPPQVEGEAASRAIRIAETLGTPLYLVHISSREALDEIAYARAKGQPVYGEVLAGHLLLDDSVYRHPDWATAAGYVMSPPFRPVEHQEALWRGLQSGNLHTTATDHCCFCAEQKAMGRDDFSKIPNGTAGIEDRMALLWDAGVNSGRLSMHEFVALTSTNTAKIFNLFPRKGAIRVGADADLVLWDPQGSRTLSAATHHQRVDFNIFEGRTVRGIPSHTISQGKLLWAAGDLRAEPGAGRYVERPAYPSVYEVLGRRAERQRPVAVER
modifications: carboxylated lysine in the active site (position not given)
notes: dihydropyrimidinase of Pseudomonas aeruginosa PAO1; two zinc ions per monomer in the active site; also called P. aeruginosa dihydropyrimidinase; pseudomonal dihydropyrimidinase
- stoichiometry N: 2 and 4
